Measurements taken from US20190300590A1 (PROTAGONIST THERAPEUTICS, published 2019).
Read-outs that look alike come from different tables or passages of the source. *1 amine or outer side, *2 acyl side, *3 side chain or, on linkers, in order; H or OH if unused. Bridges are numbered along the chain shown (N, C = ends). Primed or numbered codes have the meaning given here. [ ]: non-standard residue; d: D form. Phe(4-(2-acetylaminoethoxy)) = 4-(2-acetamidoethoxy)-phenylalanine, CC(=O)NCCOc1ccc(C[C@H](N[*:1])C(=O)[*:2])cc1; Phe(4-OMe)(3) = O-methyl-L-tyrosine (4-methoxy-L-phenylalanine), COc1ccc(C[C@H](N[*:1])C(=O)[*:2])cc1; Phe(4-OMe) = 4-methoxy-L-phenylalanine (O-methyl-L-tyrosine), COc1ccc(C[C@H](N[*:1])C(=O)[*:2])cc1; 6‑amino‑1,4‑diazepane‑2,5‑dione = C-terminal 6-amino-1,4-diazepane-2,5-dione group; Phe(4-guanidino) = N=C(N)Nc1ccc(C[C@H](N)C(=O)O)cc1; Phe(3,4-Cl2) = N[C@@H](Cc1ccc(Cl)c(Cl)c1)C(=O)O; Tyr(Ph) = N[C@@H](Cc1ccc(Oc2ccccc2)cc1)C(=O)O; Abu(4-yl) = O=C([C@H](CC[*:3])N[*:1])[*:2]; 2Nal = N[C@@H](Cc1ccc2ccccc2c1)C(=O)O; AEF = NCCOc1ccc(C[C@H](N)C(=O)O)cc1; αMeL = CC(C)C[C@](C)(N)C(=O)O; Suc = O=C(CCC(=O)[*:2])[*:1]; αMeK = C[C@](N)(CCCCN)C(=O)O; Dab = NCC[C@H](N)C(=O)O; Abu = CC[C@H](N)C(=O)O; Dap = NC[C@H](N)C(=O)O; Aib = CC(C)(N)C(=O)O

T1: IL-23R on human cells (IL-23R-expressing DB cells; human NK cells) (human, UniProt Q5VWK5 24-629)
T1 sequence (looked up): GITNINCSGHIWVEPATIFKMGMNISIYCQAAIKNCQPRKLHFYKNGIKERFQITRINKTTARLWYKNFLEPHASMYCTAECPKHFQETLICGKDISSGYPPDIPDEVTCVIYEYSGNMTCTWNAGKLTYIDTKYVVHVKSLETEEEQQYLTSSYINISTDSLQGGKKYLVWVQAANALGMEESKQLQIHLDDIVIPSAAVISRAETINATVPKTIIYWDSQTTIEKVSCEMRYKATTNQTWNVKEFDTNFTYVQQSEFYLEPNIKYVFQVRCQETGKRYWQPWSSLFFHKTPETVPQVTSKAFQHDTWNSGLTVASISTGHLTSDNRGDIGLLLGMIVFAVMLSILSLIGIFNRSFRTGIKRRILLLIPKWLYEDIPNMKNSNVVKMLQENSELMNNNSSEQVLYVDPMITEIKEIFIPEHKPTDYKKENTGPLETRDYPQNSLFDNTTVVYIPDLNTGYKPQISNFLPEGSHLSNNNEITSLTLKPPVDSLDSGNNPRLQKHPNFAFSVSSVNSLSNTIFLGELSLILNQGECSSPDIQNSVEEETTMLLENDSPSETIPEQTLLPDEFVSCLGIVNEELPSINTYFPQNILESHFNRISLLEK

T2: IL23R_huFC (human, UniProt Q5VWK5 24-353)
T2 sequence (looked up): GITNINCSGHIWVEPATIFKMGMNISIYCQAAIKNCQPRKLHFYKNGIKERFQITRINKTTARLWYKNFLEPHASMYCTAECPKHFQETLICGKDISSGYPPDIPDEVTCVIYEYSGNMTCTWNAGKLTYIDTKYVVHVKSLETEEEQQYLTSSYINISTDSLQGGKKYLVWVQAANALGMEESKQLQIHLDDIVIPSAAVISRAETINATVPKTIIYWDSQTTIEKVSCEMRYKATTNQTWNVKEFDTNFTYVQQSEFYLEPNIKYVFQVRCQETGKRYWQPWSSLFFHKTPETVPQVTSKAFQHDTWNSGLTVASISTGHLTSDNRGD

B1: Ac-E-Cyclo-[[Abu]-QTWQC]-[Phe[4-(2-aminoethoxy)]]-[2-Nal]-[α-MeLys]-ENN-NH2 (peptide)
peptide: Ac-E[Abu(4-yl)]QTWQC[AEF][2Nal][αMeK]ENN-NH2
modifications: thioether 2-7
SMILES: CC(=O)N[C@@H](CCC(=O)O)C(=O)N[C@H]1CCSC[C@@H](C(=O)N[C@@H](Cc2ccc(OCCN)cc2)C(=O)N[C@@H](Cc2ccc3ccccc3c2)C(=O)N[C@@](C)(CCCCN)C(=O)N[C@@H](CCC(=O)O)C(=O)N[C@@H](CC(N)=O)C(=O)N[C@@H](CC(N)=O)C(N)=O)NC(=O)[C@H](CCC(N)=O)NC(=O)[C@H](Cc2c[nH]c3ccccc23)NC(=O)[C@H]([C@@H](C)O)NC(=O)[C@H](CCC(N)=O)NC1=O
B2: Ac-Leu-Cyclo-[[Abu]-QTWQC]-[Phe[4-(2-aminoethoxy)]]-[2-Nal]-[α-MeLys]-ENN-NH2 (peptide)
peptide: Ac-L[Abu(4-yl)]QTWQC[AEF][2Nal][αMeK]ENN-NH2
modifications: thioether 2-7
SMILES: CC(=O)N[C@@H](CC(C)C)C(=O)N[C@H]1CCSC[C@@H](C(=O)N[C@@H](Cc2ccc(OCCN)cc2)C(=O)N[C@@H](Cc2ccc3ccccc3c2)C(=O)N[C@@](C)(CCCCN)C(=O)N[C@@H](CCC(=O)O)C(=O)N[C@@H](CC(N)=O)C(=O)N[C@@H](CC(N)=O)C(N)=O)NC(=O)[C@H](CCC(N)=O)NC(=O)[C@H](Cc2c[nH]c3ccccc23)NC(=O)[C@H]([C@@H](C)O)NC(=O)[C@H](CCC(N)=O)NC1=O

How the values were obtained:
Rat IL-23R_huFC [1] = biological target: Rat IL-23R_huFC (rat); assay: rat ELISA vs IL-23
[2] = biological target: T1, IL-23R on human cells …; assay: cell-based or functional assay
IL23R_huFC [3] = biological target: T2, IL23R_huFC; assay: human ELISA vs IL-23
Rat IL-23R_huFC [4] = biological target: Rat IL-23R_huFC (rat); assay: rat ELISA vs IL-23; remark: listed apart in the source
IL23R_huFC [5] = biological target: T2, IL23R_huFC; assay: human ELISA vs IL-23; remark: listed apart in the source

Row | Binder | IC50 (Rat IL-23R_huFC [1]) [nM] | pStat3 HTRF IC50 [2] [nM] | other results
1 | Suc-[Abu]QTWQC[AEF][2Nal][αMeK]K(Ac)NG-NH2 (thioether 1-6) [Succicinyl-Cyclo-[[Abu]-QTWQC]-[Phe[4-(2-aminoethoxy)]]-[2-Nal]-[α-MeLys]-[Lys(Ac)]-NG-NH2] | < 10 |  | 
2 | Ac-[Abu]QTWQC[AEF]W[αMeK]K(Ac)-{6‑amino‑1,4‑diazepane‑2,5‑dione-NH2} (thioether 1-6) |  | < 10 | IC50 (IL23R_huFC [3]): 25 to 100 nM
3 | Ac-[Abu]QTWQC[Phe(4-OMe)(3)][2Nal][αMeK]K(Ac)NGGE-NH2 (thioether 1-6) [Ac-Cyclo-[[Abu]-QTWQC]-[Phe(4-OMe)]-[2-Nal][α-MeLys]-[Lys(Ac)]-NGGE-NH2] |  |  | IC50 (IL23R_huFC [3]): 25 to 100 nM
4 | Ac-[Abu]QTWQC[Phe(4-(2-acetylaminoethoxy))][2Nal][αMeK](Ac)K(Ac)NG-NH2 (thioether 1-6) [Ac-Cyclo-[[Abu]-QTWQC]-[Phe[4-(2-(acetyl-aminoethoxy)]]-[2-Nal]-[α-MeLys(Ac)]-[Lys(Ac)]-NG-NH2] | < 10 |  | 
5 | Ac-[Abu]QTWQC[Phe(4-OMe)]W[αMeK]ENG-NH2 (thioether 1-6) [Ac-Cyclo-[[Abu]-QTWQC]-[Phe(4-OMe)]-W-[α-MeLys]-ENG-NH2] |  |  | IC50 (Rat IL-23R_huFC [4]): 25 to 100 nM
6 | Ac-[Abu]QTWQC[Phe(4-OMe)][2Nal][αMeL]ENG[dK]-NH2 (thioether 1-6) [Ac-Cyclo-[[Abu]-QTWQC]-[Phe(4-OMe)]-[2-Nal]-[α-MeLeu]-ENG-[(D)Lys]-NH2] |  |  | IC50 (IL23R_huFC [3]): 25 to 100 nM
7 | XQTWQCFXXENG (as bracketed in name; thioether cyclo) [Ac-Cyclo-[[Abu]-QTWQC]-[Phe(4-OMe)]-[2-Nal]-[α-MeOrn]-ENG-NH2] |  |  | IC50 (Rat IL-23R_huFC [4]): 25 to 100 nM
8 | Ac-[Abu][Dap]TWQC[AEF][Phe(3,4-Cl2)][αMeK]K(Ac)NG-NH2 (thioether 1-6) [Ac-Cyclo-[[Abu]-DapTWQC]-[Phe[4-(2-aminoethoxy)]]-[Phe(3,4-Cl2)]-[α-MeLys]--[Lys(Ac)]-NG-NH2] |  |  | IC50 (IL23R_huFC [3]): 25 to 100 nM
9 | Ac-[Abu]QTWQC[Tyr(Ph)]W[αMeK]ENG-NH2 (thioether 1-6) [Ac-Cyclo-[[Abu]-QTWQC]-[Phe(4-phenoxy)]-W-[α-MeLys]-ENG-NH2] |  |  | IC50 (Rat IL-23R_huFC [4]): 25 to 100 nM
10 | Ac-[Abu]QTWQC[Phe(4-guanidino)]W[αMeK]ENG-NH2 (thioether 1-6) [Ac-Cyclo-[[Abu]-QTWQC]-[Phe(4-guanidino)]-W-[α-MeLys]-ENG-NH2] |  |  | IC50 (Rat IL-23R_huFC [4]): 25 to 100 nM
11 | B1 | < 10 | < 10 | IC50 (IL23R_huFC [5]): < 10 nM
12 | TXQTWQCFXKENN (as bracketed in name; thioether cyclo) [Ac-T-Cyclo-[[Abu]-QTWQC]-[Phe[4-(2-aminoethoxy)]]-[2-Nal]-[α-MeLys]-ENN-NH2] | < 10 |  | 
13 | Ac-[dQ][Abu]QTWQC[AEF][2Nal][αMeK]ENN-NH2 (thioether 2-7) [Ac-[(D)Gln]-Cyclo-[[Abu]-QTWQC]-[Phe[4-(2-aminoethoxy)]]-[2-Nal]-[α-MeLys]-ENN-NH2] | < 10 | < 10 | IC50 (IL23R_huFC [5]): < 10 nM
14 | B2 | < 10 | < 10 | IC50 (IL23R_huFC [5]): < 10 nM
15 | Ac-[dR][Abu]QTWQC[AEF][2Nal][αMeK]ENN-NH2 (thioether 2-7) [Ac-[(D)Arg]-Cyclo-[[Abu]-QTWQC]-[Phe[4-(2-aminoethoxy)]]-[2-Nal]-[α-MeLys]-ENN-NH2] | < 10 | < 10 | IC50 (IL23R_huFC [5]): < 10 nM
16 | FXQTWQCFXKENN (as bracketed in name; thioether cyclo) [Ac-F-Cyclo-[[Abu]-QTWQC]]-[Phe[4-(2-aminoethoxy)]]-[2-Nal]-[α-MeLys]-ENN-NH2] | < 10 |  | 
17 | Ac-[Abu]QTWQC[AEF][2Nal][Aib]E[Dab](Ac)G-NH2 (thioether 1-6) [Ac-Cyclo-[[Abu]-QTWQC]-[Phe[4-(2-aminoethoxy)]]-[2-Nal]-[Aib]-E-[Dab(Ac)]-G-NH2] | < 10 | < 10 | 
